Data published in patent US20240239881A1 (Innovent, published 2024).

T1: Human Ang1 (human, UniProt Q15389 20-498, limits assumed)
T1 construct: also called hAng1
T1 sequence (looked up): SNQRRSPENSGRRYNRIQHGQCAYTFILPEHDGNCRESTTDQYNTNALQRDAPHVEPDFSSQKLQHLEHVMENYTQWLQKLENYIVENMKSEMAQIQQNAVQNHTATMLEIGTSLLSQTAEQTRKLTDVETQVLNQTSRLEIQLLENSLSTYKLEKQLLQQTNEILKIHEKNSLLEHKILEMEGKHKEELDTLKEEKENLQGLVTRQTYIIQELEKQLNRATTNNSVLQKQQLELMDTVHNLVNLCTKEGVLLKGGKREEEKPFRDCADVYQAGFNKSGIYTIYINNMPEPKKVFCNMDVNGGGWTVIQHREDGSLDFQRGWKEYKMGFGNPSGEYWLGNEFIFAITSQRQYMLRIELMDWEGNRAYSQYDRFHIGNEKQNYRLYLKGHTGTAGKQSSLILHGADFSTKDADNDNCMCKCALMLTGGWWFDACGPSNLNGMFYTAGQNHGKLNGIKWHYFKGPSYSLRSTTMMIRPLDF

T2: human Ang2 (human, UniProt O15123 19-496, limits assumed)
T2 construct: also called hAng2; h Ang2
T2 sequence: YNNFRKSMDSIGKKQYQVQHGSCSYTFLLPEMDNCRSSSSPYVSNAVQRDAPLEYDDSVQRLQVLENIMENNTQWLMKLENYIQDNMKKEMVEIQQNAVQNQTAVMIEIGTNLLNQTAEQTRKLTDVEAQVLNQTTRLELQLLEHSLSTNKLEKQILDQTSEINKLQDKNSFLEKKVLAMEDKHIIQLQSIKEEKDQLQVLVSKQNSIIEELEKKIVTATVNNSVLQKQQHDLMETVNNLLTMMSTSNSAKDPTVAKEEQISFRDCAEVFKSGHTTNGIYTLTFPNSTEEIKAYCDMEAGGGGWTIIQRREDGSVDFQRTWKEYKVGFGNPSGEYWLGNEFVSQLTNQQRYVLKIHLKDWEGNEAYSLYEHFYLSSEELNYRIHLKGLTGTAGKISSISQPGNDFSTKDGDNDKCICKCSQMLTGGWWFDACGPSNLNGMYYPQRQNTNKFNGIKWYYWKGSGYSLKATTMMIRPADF

T3: recombinant biotinylated hAngiopoietin-2 protein (R&D, Cat. No.: BT623B/CF) (human, UniProt O15123 19-496, limits assumed, biotinylated (sites not given))
T3 construct: Bought protein; also called Biotin Ang2; human biotin Ang2 protein
T3 sequence: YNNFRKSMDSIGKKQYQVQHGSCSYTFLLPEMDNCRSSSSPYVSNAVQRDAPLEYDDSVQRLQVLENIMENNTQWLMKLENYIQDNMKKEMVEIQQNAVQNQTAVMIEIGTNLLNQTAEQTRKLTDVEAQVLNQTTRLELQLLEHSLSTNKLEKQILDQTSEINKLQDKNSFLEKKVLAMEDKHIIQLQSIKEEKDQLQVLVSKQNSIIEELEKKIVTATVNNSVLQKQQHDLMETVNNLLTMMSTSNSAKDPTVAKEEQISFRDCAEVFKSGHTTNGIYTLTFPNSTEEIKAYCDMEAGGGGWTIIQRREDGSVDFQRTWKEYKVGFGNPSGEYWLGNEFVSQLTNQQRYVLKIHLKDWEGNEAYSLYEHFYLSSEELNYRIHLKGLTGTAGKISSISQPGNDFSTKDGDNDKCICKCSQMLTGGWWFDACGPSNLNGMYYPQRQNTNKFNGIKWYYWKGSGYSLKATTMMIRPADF

T4: Human ang2 protein (Sino Biological, Cat No.: 10691-H08H) (human, UniProt O15123 19-496)
T4 construct: Bought protein; also called recombinant hAng2; human hAng2
T4 sequence: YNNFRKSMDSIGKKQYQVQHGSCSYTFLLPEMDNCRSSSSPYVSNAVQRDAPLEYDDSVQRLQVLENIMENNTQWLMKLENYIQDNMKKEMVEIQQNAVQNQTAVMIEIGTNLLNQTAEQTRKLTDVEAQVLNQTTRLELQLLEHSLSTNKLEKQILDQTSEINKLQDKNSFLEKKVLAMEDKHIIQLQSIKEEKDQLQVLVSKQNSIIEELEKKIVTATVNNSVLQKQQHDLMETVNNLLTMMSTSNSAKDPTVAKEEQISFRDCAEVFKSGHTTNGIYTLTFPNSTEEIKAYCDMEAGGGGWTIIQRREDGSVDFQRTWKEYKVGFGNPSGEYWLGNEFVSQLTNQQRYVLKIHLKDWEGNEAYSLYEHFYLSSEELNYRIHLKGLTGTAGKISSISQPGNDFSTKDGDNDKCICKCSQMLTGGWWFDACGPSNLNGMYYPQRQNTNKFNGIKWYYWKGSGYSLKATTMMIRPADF

B1: affinity matured antibody Amhz81H10.4.30 (antibody, human IgG1, kappa, V domains shown)
VH: EVQLVESGGGLVKPGGSLRLSCAASGFTFRAAWMNWVRQAPGKGLEWVAEIRLKSNHYETHYAESVKGRFTISRDVSKNTVYLQMNSLKTEDTAVYYCTDTQPGAYWGQGTLVTVSS
VL: DIQMTQSPSSLSASVGDRVTITCKASQYVFTDVAWYQQKPGKAPKLLIYWASTRWTGVPSRFSGSGSGTDFTLTISSLQPEDFATYYCQQTSSYPLTFGGGTKVEIKR
B2: affinity matured antibody Amhz81H10.4.49 (antibody, human IgG1, kappa, V domains shown)
VH: EVQLVESGGGLVKPGGSLRLSCAASGFTFQNYWANWVRQAPGKGLEWVAEIRLKSNNYATHYAESVKGRFTISRDVSKNTVYLQMNSLKTEDTAVYYCTDTTPAAYWGQGTLVTVSS
VL: DIQMTQSPSSLSASVGDRVTITCKASQDVWTDVAWYQQKPGKAPKLLIYWGSTRWTGVPSRFSGSGSGTDFTLTISSLQPEDFATYYCQQTNIYPLTFGGGTKVEIKR
notes: also called Am81H10.4.49
B3: parental murine hybridoma antibody of chimeric antibody 86E9 (antibody, V domains shown)
VH: EVMLVESGGGLVQPGGSMKLSCVASGFTFSNYWMNWVRQSPEKGLEWVAEIRLKSNNYATHYAESVKGRFTISRDVSKSGVYLQMNNLRTEDTGIYYCTDTAPFAYWGQGTLVTVSA
VL: DIVMTQSHKFLSTSVGARVSITCKASQDVGTDVAWYQQKPGQSPKLLIYWASTRHTGVPDRFTGSGSGTDFTLTISNVQSEDLSDYFCQQYSSYPLTFGGGTKLEIK
notes: Murine antibody from the hybridoma; also called 86E9 (murine hybridoma antibody)
B4: parental murine hybridoma antibody of chimeric antibody 81H10 (antibody, V domains shown)
VH: EVKLEESGGGLVQPGGSMKLSCVASGFTFSNYWMNWVRQSPEKGLEWVAEIRLKSNNYATHYAESVKGRFTISRDVSKSSVYLQMNNLRTEDTGIYYCTDTAPFAYWGQGTLVTVSA
VL: DIVMTQSHKFMSTSVGDRVSITCKASQDVGTDVAWYQQKPGQSPKLLIYWASTRHTGVPDRFTGSGSGTDFTLTISNVQSEDLSDYFCQQYSSYPLTFGGGTKLEIK
notes: Murine antibody from the hybridoma; also called 81H10 (murine hybridoma antibody)
B5: parental murine hybridoma antibody of chimeric antibody 107H7 (antibody, V domains shown)
VH: EVMLVESGGGLVQPGGSMKLSCVASGFTFSNYWMNWVRQSPEKGLEWVAEIRLKSNNYATHYAESVKGRFTISRDVSKSGVYLQMNNLRTEDTGIYYCTDTAPFAYWGQGTLVTVSA
VL: DIVMTQTPKFLSTSVGARVSITCKASQDVGTDVAWYQQKPGQSPKLLIYWASTRHTGVPDRFTGSGSGTDFTLTISNVQSEDLSDYFCQQYSSYPLTFGGGTKLEIK
notes: Murine antibody from the hybridoma; also called 107H7 (murine hybridoma antibody)
B6: chimeric antibody 86E9 (antibody, human IgG1, kappa)
heavy: not shown
light: DIVMTQSHKFLSTSVGARVSITCKASQDVGTDVAWYQQKPGQSPKLLIYWASTRHTGVPDRFTGSGSGTDFTLTISNVQSEDLSDYFCQQYSSYPLTFGGGTKLEIKRTVAAPSVFIFPPSDEQLKSGTASVVCLLNNFYPREAKVQWKVDNALQSGNSQESVTEQDSKDSTYSLSSTLTLSKADYEKHKVYACEVTHQGLSSPVTKSFNRGEC
B7: chimeric antibody 81H10 (antibody, human IgG1, kappa, V domains shown)
VH: EVKLEESGGGLVQPGGSMKLSCVASGFTFSNYWMNWVRQSPEKGLEWVAEIRLKSNNYATHYAESVKGRFTISRDVSKSSVYLQMNNLRTEDTGIYYCTDTAPFAYWGQGTLVTVSA
VL: DIVMTQSHKFMSTSVGDRVSITCKASQDVGTDVAWYQQKPGQSPKLLIYWASTRHTGVPDRFTGSGSGTDFTLTISNVQSEDLSDYFCQQYSSYPLTFGGGTKLEIKR
B8: chimeric antibody 107H7 (antibody, human IgG1, kappa)
heavy: not shown
light: DIVMTQTPKFLSTSVGARVSITCKASQDVGTDVAWYQQKPGQSPKLLIYWASTRHTGVPDRFTGSGSGTDFTLTISNVQSEDLSDYFCQQYSSYPLTFGGGTKLEIKRTVAAPSVFIFPPSDEQLKSGTASVVCLLNNFYPREAKVQWKVDNALQSGNSQESVTEQDSKDSTYSLSSTLTLSKADYEKHKVYACEVTHQGLSSPVTKSFNRGEC

Experiments:
[1] = molecular target: T1, Human Ang1; assay: ForteBio BLI, antibody on AHQ sensor
Protocol: (§1) The equilibrium dissociation constants (KD) of the above exemplary antibodies of the present invention binding to human Ang2 (h Ang2), cynomolgus monkey Ang2 (cAng2), murine Ang2 (mAng2), and human Ang1 (hAng1) were determined using the biological optical interferometry (ForteBio) assay.
(§2) The ForteBio affinity assay was performed according to the existing method (Estep, P et al., High throughput solution-based measurement of antibody-antigen affinity and epitope binning. MAbs, 2013.5 (2): p. 270-8). Briefly, the sensor was equilibrated in the assay buffer off-line for 30 min, followed by on-line detection for 60 s to establish the baseline. Then the purified antibodies obtained as described above were loaded on-line onto an AHQ sensor (ForteBio) for ForteBio affinity assay. The sensors with loaded antibodies were exposed to 100 nM of hAng2, cAng2, mAng2, and hAng1 antigens for 5 min, and then were transferred into the assay buffer for dissociation for 5 min to determine the dissociation rate. Kinetic analysis was performed using a 1:1 binding model.

[2] = molecular target: T2, human Ang2; assay: ForteBio BLI, antibody on AHQ sensor, 100 nM antigen, 1:1 model
Protocol: as §1, §2

[3] = molecular target: T3, recombinant biotinylated …; assay: blocking ELISA: antibody titrated against biotinylated hAng2 (300 ng/ml final); blocked binding to coated hTie2 protein; Avidin-HRP detection
Protocol: The abilities of 81H10, 86E9, 107H7, hz81H10.4, Amhz81H10.4.30, Amhz81H10.4.49, and the control antibodies Nesvacumab and faricimab to block the binding of human Ang2 to hTie2 were determined by ELISA. Faricimab is a bispecific antibody drug undergoing a clinical trial and developed by Roche, which targets both angiopoietin-2 (Ang-2) and VEGF-A.
Then the plate was blocked using 5% BSA for 1 h. The biotinylated antigen, recombinant biotinylated hAngiopoietin-2 protein (R&D, Cat. No.: BT623B/CF), was diluted to 600 ng/ml, and was added into the microtiter plate at 50 μl/well. The antibodies (81H10, 86E9, 107H7, hz81H10.4, Amhz81H10.4.30 and Amhz81H10.4.49) prepared as described above were gradiently diluted with a total of 8 or 12 dilution points starting from the highest concentration, and then added to the microtiter plate at 50 μl/well, and incubated in PBS on ice for 30 min. Then, 50 ul of antigen solution was added to the microtiter plate, in which the final antigen concentration was 300 ng/ml. The plate containing the antigen-antibody mixture was incubated for 90 min. After three washes with PBS, the supernatant was discarded, and Avidin-HRP (Invitrogen) diluted at 1:10000 was added at 100 μl/well, then incubated at room temperature for 30 min. PBS was used to wash the plate six times. Then TMB chromogen solution (solarbio) was added at 100 ul/well to allow for chromogenic reaction for 1 min, then the reaction was terminated with the addition of stop solution (solarbio) at 100 ul/well.

[4] = molecular target: T4, Human ang2 protein (Sino Biological, …); assay: ELISA: human ang2 protein (Sino Biological 10691-H08H) coated at 0.25 ug/ml, antibody titrated, HRP-conjugated secondary antibody, OD450-OD620, GraphPad fit
Protocol: The binding of the respective parental murine hybridoma antibodies of the above exemplary chimeric antibodies 81H10, 86E9, and 107H7 to human hAng2 was measured in an ELISA-based assay.
Human ang2 protein (Sino Biological, Cat No.: 10691-H08H) was diluted to 0.25 μg/ml with PBS, and was coated onto a microtiter plate at 100 μl/well at 4° C. overnight. After three washes with PBST, the plate was blocked with 5% BSA. Gradient diluted antibodies (maximum concentration 20 nM, 1:2 serial dilution) were added to the microtiter plate and incubated for 2 h. After three washes with PBST, a 1:10000 dilution of anti-mouse IgG, HRP-conjugated antibody (Cell Signaling, Cat. No. 7076P2) was added, and after incubation for 60 min, the plate was washed six times with PBST. Chromogenic reaction was performed with 100 ul TMB and terminated with 100 ul 2N sulfuric acid. The reading of OD₄₅₀-OD₆₂₀ was taken by microplate reader. The concentration-dependent curve was fitted with GraphPad based on the OD₄₅₀-OD₆₂₀.

[5] = molecular target: T3, recombinant biotinylated …; assay: ELISA: biotin Ang2 (R&D BT623B/CF) captured on coated streptavidin (SA), antibody titrated, anti-human IgG-HRP, OD450-OD620, GraphPad fit
Protocol: The binding of 81H10 and hz81H10.4 of the present invention to human biotin Ang2 protein was measured in an SA-biotin Ang2-based ELISA assay.
SA protein (Thermo Fisher) was diluted to 1 μg/ml with PBS, and was coated onto a microtiter plate at 100 μl/well at 4° C. overnight. After three washes with PBST, the plate was blocked with 5% BSA for 1 h. Biotin Ang2 (R&D, Cat. No. BT623B/CF) was incubated at a concentration of 0.5 μg/ml for 1 h. Gradient diluted antibodies (maximum concentration 20 nM, 1:3 serial dilution) were added to the microtiter plate and incubated for 2 h, and the plate was washed three times with PBST. […] Then the plate was washed for 6 times with PBST. Chromogenic reaction was performed with 100 ul TMB and terminated with 100 ul 2N sulfuric acid. The reading of OD₄₅₀-OD₆₂₀ was taken by microplate reader. The concentration-dependent curve was fitted with GraphPad based on the OD₄₅₀-OD₆₂₀.

Row | Binder | binding result [1] | Kd [2] | IC50 [3] | EC50 [4] | EC50 [5]
1 | B1 | no binding (tested: 100 nM) | 23.2 nM | 4.91 nM |  | 
2 | B2 | no binding (tested: 100 nM) | 0.647 nM | 0.506 nM |  | 
3 | B3 |  |  |  | 0.434 nM | 
4 | B4 |  |  |  | 0.248 nM | 
5 | B5 |  |  |  | 0.231 nM | 
6 | B6 | no binding (tested: 100 nM) | 7.63 nM | 5.29 nM |  | 
7 | B7 | no binding (tested: 100 nM) | 6.92 nM | 1.32 nM |  | 0.0142 nM
8 | B8 | no binding (tested: 100 nM) | 7.75 nM | 9.15 nM |  | 
